Measurements taken from IntAct's records for PubMed 19759058.

B1: Poly [ADP-ribose] polymerase 1 (Mus musculus), P11103 (parent)
chain: MAEASERLYRVQYAKSGRASCKKCSESIPKDSLRMAIMVQSPMFDGKVPHWYHFSCFWKVGQSIRHPDVEVDGFSELRWDDQQKVKKTAEAGGVAGKGQDGSGGKAEKTLGDFAAEYAKSNRSMCKGCLEKIEKGQMRLSKKMVDPEKPQLGMIDRWYHPTCFVKKRDELGFRPEYSASQLKGFSLLSAEDKEALKKQLPAIKNEGKRKGDEVDGTDEVAKKKSRKETDKYSKLEKALKAQNELIWNIKDELKKACSTNDLKELLIFNQQQVPSGESAILDRVADGMAFGALLPCKECSGQLVFKSDAYYCTGDVTAWTKCMVKTQNPSRKEWVTPKEFREISYLKKLKVKKQDRIFPPESSAPITVHWPLSVTSAPTAVNSSAPADKPLSNMKILTLGKLSQNKDEAKAVIEKLGGKLTGSANKASLCISIKKEVEKMNKKMEEVKEANIRVVSEDFLQDVSASTKSLQDLLSAHSLSPWGAEVKAEPGEVVAPRGKSAAPSKKSKGCFKEEGVNKSEKRMKLTLKGGAAVDPDSGLEHSAHVLEKGGKVFSATLGLVDIVKGTNSYYKLQLLEDDKESRYWIFRSWGRLGTVIGSNKLEQMPSKEEAVEQFMKLYEEKTGNAWHSKNFTKYPKKFYPLEIDYGQDEEAVKKLTVKPGTKSKLPKPVQELVGMIFDVDSMKKALVEYEIDLQKMPLGKLSRRQIQAAYSILSEVQQPVSQGSSESQILDLSNRFYTLIPHDFGMKKPPLLNNADSVQAKVEMLDNLLDIEVAYSLLRGGSDDSSKDPIDVNYEKLKTDIKVVDRDSEEAEVIRKYVKNTHATTHNAYDLEVIDIFKIEREGESQRYKPFRQLHNRRLLWHGSRTTNFAGILSQGLRIAPPEAPVTGYMFGKGIYFADMVSKSANYCHTSQGDPIGLIMLGEVALGNMYELKHASHISKLPKGKHSVKGLGKTTPDPSASITLEGVEVPLGTGIPSGVNDTALLYNEYIVYDIAQVNLKYLLKLKFNFKTSLW
partner: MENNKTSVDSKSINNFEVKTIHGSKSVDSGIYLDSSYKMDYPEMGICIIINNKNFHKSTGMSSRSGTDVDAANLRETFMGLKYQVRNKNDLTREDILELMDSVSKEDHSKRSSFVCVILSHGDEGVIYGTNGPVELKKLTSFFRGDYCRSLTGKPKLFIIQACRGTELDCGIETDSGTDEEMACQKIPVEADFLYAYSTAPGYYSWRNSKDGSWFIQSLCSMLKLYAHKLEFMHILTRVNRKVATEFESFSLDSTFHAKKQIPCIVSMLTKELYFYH

Variants of: B1
Conditions: with casp3_mouse Casp3, P70677

effect of a mutation on the interaction | Variant
decreasing interaction | G210K
